Here are results for seven molecules from paper PMC6595007, “Structural basis for cooperativity of human monoclonal antibodies to meningococcal factor H-binding protein” (Communications Biology, 2019).

Conditions in all cases: both partners purified
The target of test [1] is T1, human factor H (human, UniProt P08603 19-1231).
T1 construct: also called fH; human fH
As to the kind of experiment: SPR; fHbp var.1 captured on immobilised mAb 1A12, second mAb 2C1 injected, then fH at 100 nM, 30 µl/min; HBS-P. A general note: SPR reads the build-up and loss of mass on a sensor chip optically.

In test [2] the target is T1, human factor H. As to the kind of experiment: SPR; fHbp var.1 captured on immobilised mAb 7B10, second mAb 1A3 injected, then fH at 100 nM, 30 µl/min; HBS-P.
Test [3] deals with T1, human factor H. In words: SPR; ternary complex: fHbp var.1 captured on immobilised mAb 1A3 (CM-5), no second mAb; fH injected at 100 nM, 30 µl/min; HBS-P.
Test [4] has as its target T1, human factor H. As to the kind of experiment: SPR; ternary complex: fHbp var.1 captured on immobilised mAb 1A12 (CM-5), no second mAb; fH injected at 100 nM, 30 µl/min; HBS-P.
Test [5] addresses T1, human factor H. As to the kind of experiment: SPR; ternary complex: fHbp var.1 captured on immobilised mAb 7B10 (CM-5), no second mAb; fH injected at 100 nM, 30 µl/min; HBS-P.
Test [6] deals with T1, human factor H. In words: SPR; quaternary complex: fHbp var.1 captured on immobilised mAb 1A3, second mAb 2C1 injected, then fH at 100 nM, 30 µl/min; HBS-P.
Test [7] addresses T1, human factor H. As to the kind of experiment: SPR; quaternary complex: fHbp var.1 captured on immobilised mAb 1A12, second mAb 1A3 injected, then fH at 100 nM, 30 µl/min; HBS-P.
For test [8], the target named is T1, human factor H. In words: SPR; quaternary complex: fHbp var.1 captured on immobilised mAb 1A3, second mAb 1A12 injected, then fH at 100 nM, 30 µl/min; HBS-P.
Test [9] deals with T1, human factor H. In words: SPR; quaternary complex: fHbp var.1 captured on immobilised mAb 7B10, second mAb 2C1 injected, then fH at 100 nM, 30 µl/min; HBS-P.
Test [10] concerns the target T1, human factor H. As to the kind of experiment: SPR; quaternary complex: fHbp var.1 captured on immobilised mAb 7B10, second mAb 1A12 injected, then fH at 100 nM, 30 µl/min; HBS-P.
The target of test [11] is T1, human factor H. As to the kind of experiment: SPR; fHbp var.1 captured on immobilised mAb 1A3, second mAb 1A3 injected (identical, no signal of the second mAb), then fH at 100 nM, 30 µl/min; HBS-P.
For test [12], the target named is T1, human factor H. In words: SPR; fHbp var.1 captured on immobilised mAb 1A12, second mAb 1A12 injected (identical, no signal of the second mAb), then fH at 100 nM, 30 µl/min; HBS-P.
The target in test [13] is T2, factor H-binding protein variant 1 (fHbp var.1), recombinant, full length (Neisseria meningitidis, UniProt E6MV22).
T2 construct: source: E. coli BL21 (DE3) Star, pET-21b, purified (HisTrap HP, HiTrap SP HP)
As to the kind of experiment: SPR.

Test [14] addresses T2, factor H-binding protein variant 1 …. As to the kind of experiment: negative-stain transmission electron microscopy (single particle, random conical tilt); complexes formed at 1:1 molar ratio, 1 h at room temperature, purified on Superdex 200 Increase; diluted to 0.03 mg/ml in 20 mM Tris, 300 mM NaCl, pH 8; 1% uranyl acetate.
Test [15] has the same target. In words: HDX-MS; 54 pmol antibody mixed with an equimolar amount of fHbp var.1, 30 min at room temperature; exposure 30 s to 30 min; difference counted when above 1 Da.

T1 sequence (P08603 19-1231): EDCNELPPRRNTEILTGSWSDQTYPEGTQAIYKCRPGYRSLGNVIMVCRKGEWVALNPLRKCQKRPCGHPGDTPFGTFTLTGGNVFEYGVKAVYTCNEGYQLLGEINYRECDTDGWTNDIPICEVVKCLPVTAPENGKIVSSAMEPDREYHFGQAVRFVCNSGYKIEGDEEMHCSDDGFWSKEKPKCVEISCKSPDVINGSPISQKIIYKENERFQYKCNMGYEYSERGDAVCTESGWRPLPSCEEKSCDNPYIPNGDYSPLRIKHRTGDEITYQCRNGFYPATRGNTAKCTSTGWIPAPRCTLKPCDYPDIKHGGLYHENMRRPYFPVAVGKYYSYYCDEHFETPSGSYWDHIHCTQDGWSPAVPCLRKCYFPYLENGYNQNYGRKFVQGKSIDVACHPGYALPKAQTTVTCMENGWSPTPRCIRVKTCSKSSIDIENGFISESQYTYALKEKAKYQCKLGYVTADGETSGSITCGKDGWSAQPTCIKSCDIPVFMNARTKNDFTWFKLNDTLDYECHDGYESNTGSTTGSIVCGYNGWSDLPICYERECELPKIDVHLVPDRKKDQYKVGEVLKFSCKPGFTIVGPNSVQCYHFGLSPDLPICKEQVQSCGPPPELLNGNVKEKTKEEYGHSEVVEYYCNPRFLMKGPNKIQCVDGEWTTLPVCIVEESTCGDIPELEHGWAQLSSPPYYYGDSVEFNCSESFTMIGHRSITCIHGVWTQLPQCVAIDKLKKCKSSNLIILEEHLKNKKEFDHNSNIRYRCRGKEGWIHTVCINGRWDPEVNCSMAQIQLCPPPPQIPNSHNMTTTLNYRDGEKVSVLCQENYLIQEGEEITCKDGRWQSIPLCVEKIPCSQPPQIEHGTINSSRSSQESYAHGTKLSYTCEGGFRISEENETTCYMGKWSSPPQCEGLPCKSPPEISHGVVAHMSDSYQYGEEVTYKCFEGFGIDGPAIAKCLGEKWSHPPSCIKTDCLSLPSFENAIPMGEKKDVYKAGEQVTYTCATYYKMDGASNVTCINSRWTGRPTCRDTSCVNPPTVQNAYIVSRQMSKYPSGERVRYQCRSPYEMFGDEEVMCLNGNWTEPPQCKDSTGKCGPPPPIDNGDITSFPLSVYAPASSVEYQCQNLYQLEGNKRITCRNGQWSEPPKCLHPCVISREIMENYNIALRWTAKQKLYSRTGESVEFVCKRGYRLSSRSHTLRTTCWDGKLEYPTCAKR

B1: factor H-binding protein variant 1 (fHbp var.1), recombinant, full length (natural protein)
chain: CSSGGGGVAADIGAGLADALTAPLDHKDKGLQSLTLDQSVRKNEKLKLAAQGAEKTYGNGDSLNTGKLKNDKVSRFDFIRQIEVDGQLITLESGEFQVYKQSHSALTAFQTEQIQDSEHSGKMVAKRQFRIGDIAGEHTSFDKLPEGGRATYRGTAFGSDDAGGKLTYTIDFAAKQGNGKIEHLKSPELNVDLAAADIKPDGKRHAVISGSVLYNQAEKGSYSLGIFGGKAQEVAGSAEVKTVNGIRHIGLAAKQ
notes: source: E. coli BL21 (DE3) Star, pET-21b, purified (HisTrap HP, HiTrap SP HP)
Take B1: the koff – broadly, the first-order rate constant of dissociation – in test [1] came out at 0.043 s⁻¹; in [2], 0.00032 s⁻¹; in [3], 0.00074 s⁻¹; in test [4] it was 0.0016 s⁻¹; in test [5], 0.00032 s⁻¹; in test [6] it was 0.00063 s⁻¹. The koff turned out to be 0.00068 s⁻¹ in test [7]; 0.00035 s⁻¹ in [8]; 0.00029 s⁻¹ in [9]; 0.00011 s⁻¹ in test [10]; 0.00074 s⁻¹ in [11]; 0.0018 s⁻¹ in test [12].

B2: human monoclonal antibody 1A3 (IgG1) against fHbp (antibody, V domains shown)
VH: EVQLVESGGGLVQPGGSLRLSCAASGFTFSSYAMSWVRQAPGKGLEWVSAISGSGGSSHYTDSVKGRFTISRDNSKNTLWLQMNSLRAEDTAIYYCAKTSGSYYYHYEIDVWGQGTTVTVSS
VL: EIVLTQSPGTLSLSPGERATLSCRASQSVSSSYLAWYQQKPGQAPRLLIYGTSNRATGIPDRFSGSGSGTDFTLTVSRLEPEDFAVYYCQQYGSSPCSFGQGTKLELK
notes: also called mAb1A3; mAb 1A3; source: Expi293 cells, transiently transfected, purified (protein G beads)
Take B2: the binding result in test [13] is listed as “binds”.

B3: human monoclonal antibody 1A12 (IgG1) against fHbp (antibody, V domains shown)
VH: EVQLVQSGAELKKPGESLKISCKASGYTFTNYWVVWVRQMPGEGLEWMGSIHPRDSDARYSLSFEGRVTFSVDKSTTTAYLQWSSLKVSDSAIYYCARLSQVSGWSPWVGPWGQGTLVTVSS
VL: DIVMTQSPSSLSASVGDRVTITCRASQSISVSLNWYQQKPGKAPKVLIYAASRLQSGIPSRFSGSGSGSHFTLTISSLQPEDFATYYCQETYSDLMYTFGQGTKVEIK
notes: also called mAb1A12; mAb 1A12; source: Expi293 cells, transiently transfected, purified (protein G beads)
Take B3: the binding result in test [13] is “binds”.

B4: antigen-binding fragment of human mAb 2C1 (Fab, V domains shown)
VH: QVQLVESGGGVVQPGRSLRLSCAASGFTFSSFAMHWVRQAPGKGLEWVAVTSFDGKDEYYAASVKGRFSVSRDISKNTVYLQMNSLKTEDTAVYYCAKDRGDWDFDYWGQGTLVTVSS
VL: SYELTQPPSVSVSPGQTATITCSGEKLGDKYTSWYQQKPGQSPVLIIYQDTKRPSGIPARFSGSNSGNTATLTISGTQAVDEADYYCQAWDSYTVPFGGGTKLTVL
notes: also called fAb2C1; huFab 2C1; source: E. coli Rosetta 2, purified (His Gravity Trap, HiTrap SP HP)
As for B4, the binding result in test [14] is reported as “binds”.

B5: human monoclonal antibody 2C1 (IgG1) against fHbp (antibody, V domains shown)
VH: B4 VH
VL: B4 VL
notes: also called mAb2C1; mAb 2C1; source: Expi293 cells, transiently transfected, purified (protein G beads)
Regarding B5, the binding result in test [15] is on record as “binds”.

B6: human monoclonal antibody 7B10 (IgG1) against fHbp (antibody, V domains shown)
VH: QVQLVESGGGLVQPGGSLRLSCVTSGFTFRSYAMTWVRQAPGKGLEWVSSISHSGGSTKYADSVKGRLTISRDDSMDTLYLQMNSLRAEDTAIYYCAKDQISYPAASPLDYWGRGTLVTVSS
VL: EIVLTQSPGTLSLSPGERATLSCRASQSFSSFSLAWYQQKPGQAPRLLIYAPSNRATGIADRFSGSGSGTDFTLTISRLEPEDFAVYYCQQYGSSPITFGQGTRLEIK
notes: also called mAb7B10; mAb 7B10; source: Expi293 cells, transiently transfected, purified (protein G beads)
For the molecule B6, the binding result in [15] is “binds”.

B7: antigen-binding fragment of human mAb 7B10 (Fab, V domains shown)
VH: B6 VH
VL: B6 VL
notes: also called fAb7B10; huFab 7B10; source: E. coli Rosetta 2, purified (His Gravity Trap, HiTrap SP HP)
Consider B7, for which, in test [14], the binding result is recorded as “binds”.
